The supplement of paper PMC12338614
± gives the uncertainty stated by the source.

B1: library; numbered along this chain (parent)
chain: MEVVDPQQLGMFTEGELMSVGMDTFIHRIDSTEVIYQPRRKRAKLIGKYLMGDLLGEGSYGKVKEVLDSETLCRRAVKILKKKKLRRIPNGEANVKKEIQLLRRLRHKNVIQLVDVLYNEEKQKMYMVMEYCVCGMQEMLDSVPEKRFPVCQAHGYFCQLIDGLEYLHSQGIVHKDIKPGNLLLTTGGTLKISDLGVAEALHPFAADDTCRTSQGSPAFQPPEIANGLDTFSGFKVDIWSAGVTLYNITTGLYPFEGDNIYKLFENIGKGSYAIPGDCGPPLSDLLKGMLEYEPAKRFSIRQIRQHSWFRKKHPPAEAPVPIPPSPDTKDRWRSMTVVPYLEDLHGADEDEDLFDIEDDIIYTQDFTVPGQVPEEEASHNGQRRGLPKAVCMNGTEAAQLSTKSRAEGRAPNPARKACSASSKIRRLSACKQQ

Variants of: B1
Assay: STK11 functional score (HeLa growth suppression), rescaled enrichment; synonymous median = 1, nonsense median = 0 (normalised score)
Details: with HeLa; variant type: missense
Description: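 Deep mutational scan (TileSeq/POPCode codon randomisation) of full-length codon-optimised STK11 cDNA integrated at a Bxb1 landing pad (AAVS1) in HeLa cells. Restoring functional STK11 suppresses HeLa proliferation. Variant frequencies were measured by NGS before and after about two weeks of growth. The error-corrected enrichment log-ratio was rescaled so that synonymous median = 1 and nonsense median = 0, scores above 1 were compressed, and codon-level and three biological replicate scores were combined; error is the bootstrapped standard error. Scale: synonymous median = 1, nonsense median = 0; below 0.5 = damaging.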

Variant	STK11 functional score
MEVVDPQQLGMFTEGELMSVGMDTFIHRIDSTEVIYQPRRKRAKLIGKYLMGDLLGEGSYGKVKEVLDSETLCRRAVKILKKKKLRRIPNGEANVKKEIQLLRRLRHKNVIQLVDVLYNEEKQHMYMVMEYCVCGMQEMLDSVPEKRFPVCQAHGYFCQLIDGLEYLHSQGIVHKDIKPGNLLLTTGGTLKISDLGVAEALHPFAADDTCRTSQGSPAFQPPEIANGLDTFSGFKVDIWSAGVTLYNITTGLYPFEGDNIYKLFENIGKGSYAIPGDCGPPLSDLLKGMLEYEPAKRFSIRQIRQHSWFRKKHPPAEAPVPIPPSPDTKDRWRSMTVVPYLEDLHGADEDEDLFDIEDDIIYTQDFTVPGQVPEEEASHNGQRRGLPKAVCMNGTEAAQLSTKSRAEGRAPNPARKACSASSKIRRLSACKQQ [K124H]	1.3 ± 0.16
MEVVDPQQLGMFTEGELMSVGMDTFIHRIDSTEVIYQPRRKRAKLIGKYLMGDLLGEGSYGKVKEVLDSETLCRRAVKILKKKKLRRIPNGEANVKKEIQLLRRLRHKNVIQLVDVLYNEEKQIMYMVMEYCVCGMQEMLDSVPEKRFPVCQAHGYFCQLIDGLEYLHSQGIVHKDIKPGNLLLTTGGTLKISDLGVAEALHPFAADDTCRTSQGSPAFQPPEIANGLDTFSGFKVDIWSAGVTLYNITTGLYPFEGDNIYKLFENIGKGSYAIPGDCGPPLSDLLKGMLEYEPAKRFSIRQIRQHSWFRKKHPPAEAPVPIPPSPDTKDRWRSMTVVPYLEDLHGADEDEDLFDIEDDIIYTQDFTVPGQVPEEEASHNGQRRGLPKAVCMNGTEAAQLSTKSRAEGRAPNPARKACSASSKIRRLSACKQQ [K124I]	1.51 ± 0.15
MEVVDPQQLGMFTEGELMSVGMDTFIHRIDSTEVIYQPRRKRAKLIGKYLMGDLLGEGSYGKVKEVLDSETLCRRAVKILKKKKLRRIPNGEANVKKEIQLLRRLRHKNVIQLVDVLYNEEKQGMYMVMEYCVCGMQEMLDSVPEKRFPVCQAHGYFCQLIDGLEYLHSQGIVHKDIKPGNLLLTTGGTLKISDLGVAEALHPFAADDTCRTSQGSPAFQPPEIANGLDTFSGFKVDIWSAGVTLYNITTGLYPFEGDNIYKLFENIGKGSYAIPGDCGPPLSDLLKGMLEYEPAKRFSIRQIRQHSWFRKKHPPAEAPVPIPPSPDTKDRWRSMTVVPYLEDLHGADEDEDLFDIEDDIIYTQDFTVPGQVPEEEASHNGQRRGLPKAVCMNGTEAAQLSTKSRAEGRAPNPARKACSASSKIRRLSACKQQ [K124G]	1.04 ± 0.36
MEVVDPQQLGMFTEGELMSVGMDTFIHRIDSTEVIYQPRRKRAKLIGKYLMGDLLGEGSYGKVKEVLDSETLCRRAVKILKKKKLRRIPNGEANVKKEIQLLRRLRHKNVIQLVDVLYNEEKQLMYMVMEYCVCGMQEMLDSVPEKRFPVCQAHGYFCQLIDGLEYLHSQGIVHKDIKPGNLLLTTGGTLKISDLGVAEALHPFAADDTCRTSQGSPAFQPPEIANGLDTFSGFKVDIWSAGVTLYNITTGLYPFEGDNIYKLFENIGKGSYAIPGDCGPPLSDLLKGMLEYEPAKRFSIRQIRQHSWFRKKHPPAEAPVPIPPSPDTKDRWRSMTVVPYLEDLHGADEDEDLFDIEDDIIYTQDFTVPGQVPEEEASHNGQRRGLPKAVCMNGTEAAQLSTKSRAEGRAPNPARKACSASSKIRRLSACKQQ [K124L]	0.951 ± 0.13
MEVVDPQQLGMFTEGELMSVGMDTFIHRIDSTEVIYQPRRKRAKLIGKYLMGDLLGEGSYGKVKEVLDSETLCRRAVKILKKKKLRRIPNGEANVKKEIQLLRRLRHKNVIQLVDVLYNEEKQRMYMVMEYCVCGMQEMLDSVPEKRFPVCQAHGYFCQLIDGLEYLHSQGIVHKDIKPGNLLLTTGGTLKISDLGVAEALHPFAADDTCRTSQGSPAFQPPEIANGLDTFSGFKVDIWSAGVTLYNITTGLYPFEGDNIYKLFENIGKGSYAIPGDCGPPLSDLLKGMLEYEPAKRFSIRQIRQHSWFRKKHPPAEAPVPIPPSPDTKDRWRSMTVVPYLEDLHGADEDEDLFDIEDDIIYTQDFTVPGQVPEEEASHNGQRRGLPKAVCMNGTEAAQLSTKSRAEGRAPNPARKACSASSKIRRLSACKQQ [K124R]	1.18 ± 0.52
MEVVDPQQLGMFTEGELMSVGMDTFIHRIDSTEVIYQPRRKRAKLIGKYLMGDLLGEGSYGKVKEVLDSETLCRRAVKILKKKKLRRIPNGEANVKKEIQLLRRLRHKNVIQLVDVLYNEEKQPMYMVMEYCVCGMQEMLDSVPEKRFPVCQAHGYFCQLIDGLEYLHSQGIVHKDIKPGNLLLTTGGTLKISDLGVAEALHPFAADDTCRTSQGSPAFQPPEIANGLDTFSGFKVDIWSAGVTLYNITTGLYPFEGDNIYKLFENIGKGSYAIPGDCGPPLSDLLKGMLEYEPAKRFSIRQIRQHSWFRKKHPPAEAPVPIPPSPDTKDRWRSMTVVPYLEDLHGADEDEDLFDIEDDIIYTQDFTVPGQVPEEEASHNGQRRGLPKAVCMNGTEAAQLSTKSRAEGRAPNPARKACSASSKIRRLSACKQQ [K124P]	0.692 ± 0.35
MEVVDPQQLGMFTEGELMSVGMDTFIHRIDSTEVIYQPRRKRAKLIGKYLMGDLLGEGSYGKVKEVLDSETLCRRAVKILKKKKLRRIPNGEANVKKEIQLLRRLRHKNVIQLVDVLYNEEKQWMYMVMEYCVCGMQEMLDSVPEKRFPVCQAHGYFCQLIDGLEYLHSQGIVHKDIKPGNLLLTTGGTLKISDLGVAEALHPFAADDTCRTSQGSPAFQPPEIANGLDTFSGFKVDIWSAGVTLYNITTGLYPFEGDNIYKLFENIGKGSYAIPGDCGPPLSDLLKGMLEYEPAKRFSIRQIRQHSWFRKKHPPAEAPVPIPPSPDTKDRWRSMTVVPYLEDLHGADEDEDLFDIEDDIIYTQDFTVPGQVPEEEASHNGQRRGLPKAVCMNGTEAAQLSTKSRAEGRAPNPARKACSASSKIRRLSACKQQ [K124W]	0.166 ± 0.11
MEVVDPQQLGMFTEGELMSVGMDTFIHRIDSTEVIYQPRRKRAKLIGKYLMGDLLGEGSYGKVKEVLDSETLCRRAVKILKKKKLRRIPNGEANVKKEIQLLRRLRHKNVIQLVDVLYNEEKQVMYMVMEYCVCGMQEMLDSVPEKRFPVCQAHGYFCQLIDGLEYLHSQGIVHKDIKPGNLLLTTGGTLKISDLGVAEALHPFAADDTCRTSQGSPAFQPPEIANGLDTFSGFKVDIWSAGVTLYNITTGLYPFEGDNIYKLFENIGKGSYAIPGDCGPPLSDLLKGMLEYEPAKRFSIRQIRQHSWFRKKHPPAEAPVPIPPSPDTKDRWRSMTVVPYLEDLHGADEDEDLFDIEDDIIYTQDFTVPGQVPEEEASHNGQRRGLPKAVCMNGTEAAQLSTKSRAEGRAPNPARKACSASSKIRRLSACKQQ [K124V]	1.06 ± 0.11
MEVVDPQQLGMFTEGELMSVGMDTFIHRIDSTEVIYQPRRKRAKLIGKYLMGDLLGEGSYGKVKEVLDSETLCRRAVKILKKKKLRRIPNGEANVKKEIQLLRRLRHKNVIQLVDVLYNEEKQNMYMVMEYCVCGMQEMLDSVPEKRFPVCQAHGYFCQLIDGLEYLHSQGIVHKDIKPGNLLLTTGGTLKISDLGVAEALHPFAADDTCRTSQGSPAFQPPEIANGLDTFSGFKVDIWSAGVTLYNITTGLYPFEGDNIYKLFENIGKGSYAIPGDCGPPLSDLLKGMLEYEPAKRFSIRQIRQHSWFRKKHPPAEAPVPIPPSPDTKDRWRSMTVVPYLEDLHGADEDEDLFDIEDDIIYTQDFTVPGQVPEEEASHNGQRRGLPKAVCMNGTEAAQLSTKSRAEGRAPNPARKACSASSKIRRLSACKQQ [K124N]	1.27 ± 0.36
MEVVDPQQLGMFTEGELMSVGMDTFIHRIDSTEVIYQPRRKRAKLIGKYLMGDLLGEGSYGKVKEVLDSETLCRRAVKILKKKKLRRIPNGEANVKKEIQLLRRLRHKNVIQLVDVLYNEEKQQMYMVMEYCVCGMQEMLDSVPEKRFPVCQAHGYFCQLIDGLEYLHSQGIVHKDIKPGNLLLTTGGTLKISDLGVAEALHPFAADDTCRTSQGSPAFQPPEIANGLDTFSGFKVDIWSAGVTLYNITTGLYPFEGDNIYKLFENIGKGSYAIPGDCGPPLSDLLKGMLEYEPAKRFSIRQIRQHSWFRKKHPPAEAPVPIPPSPDTKDRWRSMTVVPYLEDLHGADEDEDLFDIEDDIIYTQDFTVPGQVPEEEASHNGQRRGLPKAVCMNGTEAAQLSTKSRAEGRAPNPARKACSASSKIRRLSACKQQ [K124Q]	1.61 ± 0.18
MEVVDPQQLGMFTEGELMSVGMDTFIHRIDSTEVIYQPRRKRAKLIGKYLMGDLLGEGSYGKVKEVLDSETLCRRAVKILKKKKLRRIPNGEANVKKEIQLLRRLRHKNVIQLVDVLYNEEKQSMYMVMEYCVCGMQEMLDSVPEKRFPVCQAHGYFCQLIDGLEYLHSQGIVHKDIKPGNLLLTTGGTLKISDLGVAEALHPFAADDTCRTSQGSPAFQPPEIANGLDTFSGFKVDIWSAGVTLYNITTGLYPFEGDNIYKLFENIGKGSYAIPGDCGPPLSDLLKGMLEYEPAKRFSIRQIRQHSWFRKKHPPAEAPVPIPPSPDTKDRWRSMTVVPYLEDLHGADEDEDLFDIEDDIIYTQDFTVPGQVPEEEASHNGQRRGLPKAVCMNGTEAAQLSTKSRAEGRAPNPARKACSASSKIRRLSACKQQ [K124S]	0.355 ± 0.12
MEVVDPQQLGMFTEGELMSVGMDTFIHRIDSTEVIYQPRRKRAKLIGKYLMGDLLGEGSYGKVKEVLDSETLCRRAVKILKKKKLRRIPNGEANVKKEIQLLRRLRHKNVIQLVDVLYNEEKQYMYMVMEYCVCGMQEMLDSVPEKRFPVCQAHGYFCQLIDGLEYLHSQGIVHKDIKPGNLLLTTGGTLKISDLGVAEALHPFAADDTCRTSQGSPAFQPPEIANGLDTFSGFKVDIWSAGVTLYNITTGLYPFEGDNIYKLFENIGKGSYAIPGDCGPPLSDLLKGMLEYEPAKRFSIRQIRQHSWFRKKHPPAEAPVPIPPSPDTKDRWRSMTVVPYLEDLHGADEDEDLFDIEDDIIYTQDFTVPGQVPEEEASHNGQRRGLPKAVCMNGTEAAQLSTKSRAEGRAPNPARKACSASSKIRRLSACKQQ [K124Y]	1.25 ± 0.086
MEVVDPQQLGMFTEGELMSVGMDTFIHRIDSTEVIYQPRRKRAKLIGKYLMGDLLGEGSYGKVKEVLDSETLCRRAVKILKKKKLRRIPNGEANVKKEIQLLRRLRHKNVIQLVDVLYNEEKQKDYMVMEYCVCGMQEMLDSVPEKRFPVCQAHGYFCQLIDGLEYLHSQGIVHKDIKPGNLLLTTGGTLKISDLGVAEALHPFAADDTCRTSQGSPAFQPPEIANGLDTFSGFKVDIWSAGVTLYNITTGLYPFEGDNIYKLFENIGKGSYAIPGDCGPPLSDLLKGMLEYEPAKRFSIRQIRQHSWFRKKHPPAEAPVPIPPSPDTKDRWRSMTVVPYLEDLHGADEDEDLFDIEDDIIYTQDFTVPGQVPEEEASHNGQRRGLPKAVCMNGTEAAQLSTKSRAEGRAPNPARKACSASSKIRRLSACKQQ [M125D]	0.704 ± 0.082
MEVVDPQQLGMFTEGELMSVGMDTFIHRIDSTEVIYQPRRKRAKLIGKYLMGDLLGEGSYGKVKEVLDSETLCRRAVKILKKKKLRRIPNGEANVKKEIQLLRRLRHKNVIQLVDVLYNEEKQKAYMVMEYCVCGMQEMLDSVPEKRFPVCQAHGYFCQLIDGLEYLHSQGIVHKDIKPGNLLLTTGGTLKISDLGVAEALHPFAADDTCRTSQGSPAFQPPEIANGLDTFSGFKVDIWSAGVTLYNITTGLYPFEGDNIYKLFENIGKGSYAIPGDCGPPLSDLLKGMLEYEPAKRFSIRQIRQHSWFRKKHPPAEAPVPIPPSPDTKDRWRSMTVVPYLEDLHGADEDEDLFDIEDDIIYTQDFTVPGQVPEEEASHNGQRRGLPKAVCMNGTEAAQLSTKSRAEGRAPNPARKACSASSKIRRLSACKQQ [M125A]	1.14 ± 0.36
